Experimental data published in publication PMC11417369, “DNA sequence and chromatin differentiate sequence-specific transcription factor binding in the human malaria parasite Plasmodium falciparum”.

Assays:
Assay in all cases: gcPBM; about 25 ug protein; PBS, 1% milk, 0.2 mg/ml BSA, salmon testes DNA, 0.03% Triton X-100
HDP1 homeodomain-like = target: T1, HDP1 homeodomain-like (Plasmodium falciparum, UniProt Q8IKH4 2990-3078); conditions: tags: N-terminal GST (pGEX-4T-1), kept; chain copies: 2; label: surface-attached array probe
T1 sequence: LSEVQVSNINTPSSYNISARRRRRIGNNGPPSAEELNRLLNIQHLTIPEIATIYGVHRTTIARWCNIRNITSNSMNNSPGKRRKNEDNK

AP2-I D3 = AP2-I D3 (Plasmodium falciparum, UniProt Q8IJW6 910-1027); conditions: tags: N-terminal GST (pGEX-4T-1), kept; label: surface-attached array probe
SIP2 D1 = target: T2, SIP2 D1 (Plasmodium falciparum, UniProt C6KSN9 177-235); conditions: tags: N-terminal GST (pGEX-4T-1), kept; label: surface-attached array probe
T2 sequence: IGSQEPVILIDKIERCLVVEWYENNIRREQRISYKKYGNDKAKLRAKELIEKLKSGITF

Binder	binding signal (HDP1 homeodomain-like)	binding signal (AP2-I D3)	binding signal (SIP2 D1)
GTGCAC_site9536 (dsDNA) DNA 1: AATAATATACCTCTTGTGCACATATTAAAAGTTCAT DNA 2: ATGAACTTTTAATATGTGCACAAGAGGTATATTATT	11.3 ln median PBM intensity, better of two orientations	–	–
GTGCAC_site10770 (dsDNA) DNA 1: TATATACATTTTTATGTGCACATTTTATTTTTAAAT DNA 2: ATTTAAAAATAAAATGTGCACATAAAAATGTATATA	11.4 ln median PBM intensity, better of two orientations	–	–
GTGCAC_site9630 (dsDNA) DNA 1: TTTAATTTATATTTTGTGCACATCTTATTATATATA DNA 2: TATATATAATAAGATGTGCACAAAATATAAATTAAA	11.7 ln median PBM intensity, better of two orientations	–	–
GTGCAC_negctrl_site669 (dsDNA) DNA 1: AAAAAAAAGTATGATTCTAAATTTATGTATATATAA DNA 2: TTATATATACATAAATTTAGAATCATACTTTTTTTT	–	7.05 ln median PBM intensity, better of two orientations	6.9 ln median PBM intensity, better of two orientations
GTGCAC_site10578 (dsDNA) DNA 1: CATATTGTCATTCTGGTGCACTTTTTTTTTTTTTTT DNA 2: AAAAAAAAAAAAAAAGTGCACCAGAATGACAATATG	–	10.9 ln median PBM intensity, better of two orientations	11.4 ln median PBM intensity, better of two orientations
GTGCAC_site10051 (dsDNA) DNA 1: AATAAATTAAAACAGGTGCACTATATTACACACGCT DNA 2: AGCGTGTGTAATATAGTGCACCTGTTTTAATTTATT	–	12 ln median PBM intensity, better of two orientations	11.6 ln median PBM intensity, better of two orientations
GTGCAC_site9822 (dsDNA) DNA 1: ATCGTGTTAAATGTTGTGCACATATAAATTACAAAA DNA 2: TTTTGTAATTTATATGTGCACAACATTTAACACGAT	11.3 ln median PBM intensity, better of two orientations	–	–
GTGCAC_site9624 (dsDNA) DNA 1: GACAAATAATAAAAGGTGCATTATACTTAACAAAAA DNA 2: TTTTTGTTAAGTATAATGCACCTTTTATTATTTGTC	–	12.2 ln median PBM intensity, better of two orientations	11.4 ln median PBM intensity, better of two orientations
GTGCAC_site9611 (dsDNA) DNA 1: TATGAAACGATATATGTGCACATGAGGGAATATAGA DNA 2: TCTATATTCCCTCATGTGCACATATATCGTTTCATA	11.3 ln median PBM intensity, better of two orientations	–	–
GTGCAC_site9931 (dsDNA) DNA 1: ATAAAAATAAAAAGTGTGCACACAAAAATATATATA DNA 2: TATATATATTTTTGTGTGCACACTTTTTATTTTTAT	11.3 ln median PBM intensity, better of two orientations	–	–
GTGCAC_site10755 (dsDNA) DNA 1: TAATGCAACATTTATGTGCACATAAATATTTTTTAA DNA 2: TTAAAAAATATTTATGTGCACATAAATGTTGCATTA	11.4 ln median PBM intensity, better of two orientations	–	–
GTGCAC_site10009 (dsDNA) DNA 1: AAATATAGAATACATGTGCACATAATATATATATAT DNA 2: ATATATATATATTATGTGCACATGTATTCTATATTT	11.3 ln median PBM intensity, better of two orientations	–	–
GTGCAC_site10665 (dsDNA) DNA 1: TATGTATATTTTTTTGTGCACATATATATATATATA DNA 2: TATATATATATATATGTGCACAAAAAAATATACATA	11.3 ln median PBM intensity, better of two orientations	–	–
GTGCAC_site9422 (dsDNA) DNA 1: CACTCTTAAAATAAGGTGCACTATATAACGTGATTA DNA 2: TAATCACGTTATATAGTGCACCTTATTTTAAGAGTG	–	12.2 ln median PBM intensity, better of two orientations	11.7 ln median PBM intensity, better of two orientations
GTGCAC_site9431 (dsDNA) DNA 1: TCTTCTTTAAAAGAGGTGCACTATATAATGTGATTA DNA 2: TAATCACATTATATAGTGCACCTCTTTTAAAGAAGA	–	12.2 ln median PBM intensity, better of two orientations	11.8 ln median PBM intensity, better of two orientations
GTGCAC_site10194 (dsDNA) DNA 1: AATTTTCCATAGATTGTGCACAAATTTTTATTTTGT DNA 2: ACAAAATAAAAATTTGTGCACAATCTATGGAAAATT	11.3 ln median PBM intensity, better of two orientations	–	–
GTGCAC_site10418 (dsDNA) DNA 1: CTTTTCTATTTTTTCGTGCACTATAAATATTTTAAT DNA 2: ATTAAAATATTTATAGTGCACGAAAAAATAGAAAAG	–	12.3 ln median PBM intensity, better of two orientations	10.6 ln median PBM intensity, better of two orientations
GTGCAC_negctrl_site45 (dsDNA) DNA 1: TTATGTTGCGAGTTCTTAAGATATAAAAAATTCTTC DNA 2: GAAGAATTTTTTATATCTTAAGAACTCGCAACATAA	–	7.08 ln median PBM intensity, better of two orientations	6.87 ln median PBM intensity, better of two orientations
GTGCAC_site10368 (dsDNA) DNA 1: ACATGTGAATTTTAGGTGCACTTGTAATTTAACATT DNA 2: AATGTTAAATTACAAGTGCACCTAAAATTCACATGT	–	10.9 ln median PBM intensity, better of two orientations	11.7 ln median PBM intensity, better of two orientations
GTGCAC_site10523 (dsDNA) DNA 1: TCGTTTCATAATATTGTGCACATATATATTTACAAT DNA 2: ATTGTAAATATATATGTGCACAATATTATGAAACGA	11.5 ln median PBM intensity, better of two orientations	–	–

Binder	binding signal (HDP1 homeodomain-like)	binding signal (AP2-I D3)	binding signal (SIP2 D1)
GTGCAC_site9981 (dsDNA) DNA 1: ATAATGTTCACATAGGTGCACTAATATAATTATCCA DNA 2: TGGATAATTATATTAGTGCACCTATGTGAACATTAT	–	12.2 ln median PBM intensity, better of two orientations	11.4 ln median PBM intensity, better of two orientations
GTGCAC_site9596 (dsDNA) DNA 1: TATATTTTTATGTGTGTGCACAAAATAACAAAATAT DNA 2: ATATTTTGTTATTTTGTGCACACACATAAAAATATA	11.4 ln median PBM intensity, better of two orientations	–	–
GTGCAC_site9957 (dsDNA) DNA 1: TTTTAATGTACCAGTGTGCACCTTGCGTACATATTA DNA 2: TAATATGTACGCAAGGTGCACACTGGTACATTAAAA	–	10.3 ln median PBM intensity, better of two orientations	11.8 ln median PBM intensity, better of two orientations
GTGCAC_negctrl_site278 (dsDNA) DNA 1: TTTTTTACATACAGAAATATATAATATAAAATAAAT DNA 2: ATTTATTTTATATTATATATTTCTGTATGTAAAAAA	–	7.19 ln median PBM intensity, better of two orientations	6.9 ln median PBM intensity, better of two orientations
GTGCAC_site10451 (dsDNA) DNA 1: ATGTTATAATTTAGTGTGCACATATTAAGAGGAACA DNA 2: TGTTCCTCTTAATATGTGCACACTAAATTATAACAT	11.4 ln median PBM intensity, better of two orientations	–	–
GTGCAC_site10073 (dsDNA) DNA 1: AAATACTGTACAAAGGTGCATAAAAAGTGGGGCATA DNA 2: TATGCCCCACTTTTTATGCACCTTTGTACAGTATTT	–	11.7 ln median PBM intensity, better of two orientations	11.1 ln median PBM intensity, better of two orientations
GTGCAC_site10340 (dsDNA) DNA 1: ATTATTATTAATCTTGTGCACATATATTTTAATTAG DNA 2: CTAATTAAAATATATGTGCACAAGATTAATAATAAT	11.6 ln median PBM intensity, better of two orientations	–	–
GTGCAC_site10342 (dsDNA) DNA 1: TTTTTAAACCATGTTGTGCACATTTTTTTTGGATTT DNA 2: AAATCCAAAAAAAATGTGCACAACATGGTTTAAAAA	11.3 ln median PBM intensity, better of two orientations	–	–
GTGCAC_site10153 (dsDNA) DNA 1: AAAATGTAATATTGGGTGCACAATAAGTTTGATGTC DNA 2: GACATCAAACTTATTGTGCACCCAATATTACATTTT	–	12.2 ln median PBM intensity, better of two orientations	11.5 ln median PBM intensity, better of two orientations
GTGCAC_negctrl_site701 (dsDNA) DNA 1: ATTAATATGAAACGATTATAAGAAAGAAAAGAAATG DNA 2: CATTTCTTTTCTTTCTTATAATCGTTTCATATTAAT	–	7.09 ln median PBM intensity, better of two orientations	6.92 ln median PBM intensity, better of two orientations
GTGCAC_site9615 (dsDNA) DNA 1: TTATTTTATTTTTTTGTGCACATATATATTTATAAA DNA 2: TTTATAAATATATATGTGCACAAAAAAATAAAATAA	11.9 ln median PBM intensity, better of two orientations	–	–
GTGCAC_site9812 (dsDNA) DNA 1: TGTTTTATTTTTTTTGTGCACATACCTTTAGCATCA DNA 2: TGATGCTAAAGGTATGTGCACAAAAAAAATAAAACA	11.4 ln median PBM intensity, better of two orientations	–	–
GTGCAC_negctrl_site129 (dsDNA) DNA 1: AATTTAATCCGTAATAAGAAAAGAAAAAAAAAAAGA DNA 2: TCTTTTTTTTTTTCTTTTCTTATTACGGATTAAATT	–	7.24 ln median PBM intensity, better of two orientations	6.91 ln median PBM intensity, better of two orientations
GTGCAC_negctrl_site283 (dsDNA) DNA 1: ATAATTCCAAGAATTTCATATATCTGAATTTTAGGT DNA 2: ACCTAAAATTCAGATATATGAAATTCTTGGAATTAT	–	6.92 ln median PBM intensity, better of two orientations	6.91 ln median PBM intensity, better of two orientations
GTGCAC_site10700 (dsDNA) DNA 1: ATTATACAAATTGAGGTGCATGAAACAAAATATGAA DNA 2: TTCATATTTTGTTTCATGCACCTCAATTTGTATAAT	–	9.77 ln median PBM intensity, better of two orientations	10.6 ln median PBM intensity, better of two orientations
GTGCAC_negctrl_site490 (dsDNA) DNA 1: TGTATAAAAAGAAAAAATCGTATGTGTTATCAAAAA DNA 2: TTTTTGATAACACATACGATTTTTTCTTTTTATACA	–	6.98 ln median PBM intensity, better of two orientations	6.88 ln median PBM intensity, better of two orientations
GTGCAC_site10054 (dsDNA) DNA 1: GTCTATATATTTTAGGTGCAACGTAAATGTAAAAAT DNA 2: ATTTTTACATTTACGTTGCACCTAAAATATATAGAC	11.5 ln median PBM intensity, better of two orientations	–	–
GTGCAC_site9947 (dsDNA) DNA 1: TATTTGAAAACATAGGTGCACATTATTTTATAATCT DNA 2: AGATTATAAAATAATGTGCACCTATGTTTTCAAATA	–	11.1 ln median PBM intensity, better of two orientations	11.6 ln median PBM intensity, better of two orientations
GTGCAC_site9671 (dsDNA) DNA 1: GTTACAGAGAATGTTGTGCACATATCAATAATATAT DNA 2: ATATATTATTGATATGTGCACAACATTCTCTGTAAC	11.4 ln median PBM intensity, better of two orientations	–	–
